Consider one molecule from patent publication US20120283194, “Inhibitors of Atypical Protein Kinase C and Their Use in Treating Hedgehog Pathway-Dependent Cancers” (published 2012).

One series deals with Gli1 (Homo sapiens, UniProt P08151 P08151:1-1106). The series is described as follows: EMSA; Zn, Mg, poly(dI-dC)-type competitor, room temperature; binding reduced by PSI during translation and rescued by recombinant aPKC; over-phosphorylation disrupts. Particulars: tags: V5/HIS, rabbit reticulocyte lysate (Promega). On the procedure:
(§1) Electrophoretic mobility shift assay performed by incubation of 50 fmol double-stranded radiolabeled Gli1 oligos (5′ […] 3′ (SEQ IF NO:5)) in binding buffer ([…] pH 7.5, mM KCl, 2.5 mM MgCl2, 1 mM DTT, 10% glycerol, 25 uM poly(dO-dC), 5 uM ZnSO₄) with IVT Gli1:V5/HIS lysate for 10 min at room temperature. 2 pmol unlabeled Gli1 oligos or Gli1 mutant oligos (5′ […] 3′ (SEQ ID NO:6)) used as competition. Endogenous aPKC inhibited in reticulocyte lysate with PSI during translation reaction and rescue performed by adding recombinant HIS:aPKC for 15 min before addition of radiolabeled Gli1 oligos. Samples were resolved on 6% acrylamide gel and exposed to a phosphor screen (Molecular Dynamics) and imaged with GE Typhoon 9410.
(§2) We asked whether phosphorylated Gli1 affects the mobility of radiolabeled Gli1 target DNA in an electrophoretic mobility assay.

The target of the next series is T1, aPKC (HIS:aPKC) (UniProt P41743 P41743:1-596).
T1 sequence: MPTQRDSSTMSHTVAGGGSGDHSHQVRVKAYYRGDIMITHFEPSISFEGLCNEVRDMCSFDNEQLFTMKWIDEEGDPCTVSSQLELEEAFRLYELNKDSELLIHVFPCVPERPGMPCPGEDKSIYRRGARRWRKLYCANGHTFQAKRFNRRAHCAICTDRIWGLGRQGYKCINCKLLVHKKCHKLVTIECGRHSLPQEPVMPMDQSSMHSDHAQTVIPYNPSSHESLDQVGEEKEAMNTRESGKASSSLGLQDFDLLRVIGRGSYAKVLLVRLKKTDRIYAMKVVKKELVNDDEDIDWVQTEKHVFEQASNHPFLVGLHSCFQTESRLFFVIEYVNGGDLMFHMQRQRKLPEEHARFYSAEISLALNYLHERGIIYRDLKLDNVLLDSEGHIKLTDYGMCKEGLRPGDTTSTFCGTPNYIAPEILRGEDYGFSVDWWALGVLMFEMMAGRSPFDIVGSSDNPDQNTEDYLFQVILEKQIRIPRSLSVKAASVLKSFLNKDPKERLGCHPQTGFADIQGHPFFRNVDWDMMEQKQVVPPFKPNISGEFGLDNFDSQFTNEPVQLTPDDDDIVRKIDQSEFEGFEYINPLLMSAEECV
Put plainly: EMSA; aPKC alone did not bind. Particulars: tags: HIS, Abcam. The method, then: as §1, §2

Sequence of Gli1 (P08151 whole entry, one chain of several): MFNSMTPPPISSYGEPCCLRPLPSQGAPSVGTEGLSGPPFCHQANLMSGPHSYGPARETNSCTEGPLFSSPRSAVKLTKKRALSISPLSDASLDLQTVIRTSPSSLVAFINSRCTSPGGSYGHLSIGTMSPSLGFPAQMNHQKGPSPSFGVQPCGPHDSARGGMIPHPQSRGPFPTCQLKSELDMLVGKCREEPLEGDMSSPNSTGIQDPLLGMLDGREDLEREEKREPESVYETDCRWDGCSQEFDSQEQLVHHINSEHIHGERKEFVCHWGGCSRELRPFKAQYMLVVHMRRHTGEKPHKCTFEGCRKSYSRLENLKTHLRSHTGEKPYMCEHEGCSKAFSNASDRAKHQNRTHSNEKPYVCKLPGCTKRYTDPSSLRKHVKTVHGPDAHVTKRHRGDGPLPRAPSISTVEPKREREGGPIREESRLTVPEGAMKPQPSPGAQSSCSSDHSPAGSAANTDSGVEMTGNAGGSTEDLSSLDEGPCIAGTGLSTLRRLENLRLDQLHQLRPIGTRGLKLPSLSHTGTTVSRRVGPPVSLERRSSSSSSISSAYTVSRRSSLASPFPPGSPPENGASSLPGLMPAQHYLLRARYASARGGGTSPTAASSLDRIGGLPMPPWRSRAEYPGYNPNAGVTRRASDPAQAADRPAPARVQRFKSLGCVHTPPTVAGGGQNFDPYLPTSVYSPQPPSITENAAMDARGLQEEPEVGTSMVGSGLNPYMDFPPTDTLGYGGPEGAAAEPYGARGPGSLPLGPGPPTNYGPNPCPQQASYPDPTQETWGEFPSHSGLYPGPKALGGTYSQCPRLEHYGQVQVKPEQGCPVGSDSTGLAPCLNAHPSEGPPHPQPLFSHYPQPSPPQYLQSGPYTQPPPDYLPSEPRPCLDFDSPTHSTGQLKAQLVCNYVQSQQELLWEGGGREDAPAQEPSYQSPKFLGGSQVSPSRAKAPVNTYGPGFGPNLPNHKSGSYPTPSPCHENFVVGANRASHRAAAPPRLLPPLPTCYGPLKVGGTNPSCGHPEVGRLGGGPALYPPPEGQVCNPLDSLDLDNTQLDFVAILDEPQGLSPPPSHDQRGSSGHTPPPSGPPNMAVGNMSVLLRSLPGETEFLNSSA

B1: Gli1 target oligo (dsDNA)
DNA 1: AGCCCGGACCACCCACGAGAA
DNA 2: TTCTCGTGGGTGGTCCGGGCT
As for B1, the binding result with Gli1 was “binds”; with aPKC (HIS:aPKC) it was “no binding”.
